Data set [1] relates to HeLa Kyoto. In words: solubility in G1/S (NP-40 vs SDS abundance) (log2 ratio); higher = more soluble. The conditions noted are these: cell cycle stage: G1/S.
Data set [2] concerns HeLa Kyoto. In words: melting temperature (median over replicates), in situ; higher = more thermally stable.
Data set [3] concerns HeLa Kyoto. In words: solubility change mitosis vs G1/S (difference of NP-40 vs SDS log2 ratios) (log2 ratio difference); higher = more soluble in mitosis.
Data set [4] relates to HeLa Kyoto. The experiment in a line: thermal stability score vs G1/S (z-score of summed log2 fold changes over temperatures); higher = more thermally stable than in G1/S.
Setting [5] is: cell cycle stage: early G1 (4.5 h after nocodazole release).
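Throughout, for melting temperature (median over replicates), in situ: HeLa Kyoto cells synchronized by double thymidine or nocodazole block, proteins quantified by TMT10plex mass spectrometry, three independent biological replicates.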
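Throughout, for solubility change mitosis vs G1/S (difference of NP-40 vs SDS log2 ratios): synchronized HeLa Kyoto cells (double thymidine block for G1/S, nocodazole release for mitosis), protein amounts in NP-40 versus SDS lysates quantified by mass spectrometry, three biological replicates.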
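Throughout, for solubility in G1/S (NP-40 vs SDS abundance): HeLa Kyoto cells arrested at G1/S by double thymidine block, proteins quantified by TMT10plex mass spectrometry in mild NP-40 versus SDS extracts, three biological replicates.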
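Throughout, for thermal stability score vs G1/S (z-score of summed log2 fold changes over temperatures): synchronized HeLa Kyoto cells, proteins quantified by TMT10plex mass spectrometry, three biological replicates, mitosis taken 0.5 h after nocodazole release, G1/S directly after double thymidine block.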

For “MSLWGLVSKMPPEKVQRLYVDFPQHLRHLLGDWLESQPWEFLVGSDAFCCNLASALLSDTVQHLQASVGEQGEGSTILQHISTLESIYQRDPLKLVATFRQILQGEKKAVMEQFRHLPMPFHWKQEELKFKTGLRRLQHRVGEIHLLREALQKGAEAGQVSLHSLIETPANGTGPSEALAMLLQETTGELEAAKALVLKRIQIWKRQQQLAGNGAPFEESLAPLQERCESLVDIYSQLQQEVGAAGGELEPKTRASLTGRLDEVLRTLVTSCFLVEKQPPQVLKTQTKFQAGVRFLLGLRFLGAPAKPPLVRADMVTEKQARELSVPQGPGAGAESTGEIINNTVPLENSIPGNCCSALFKNLLLKKIKRCERKGTESVTEEKCAVLFSASFTLGPGKLPIQLQALSLPLVVIVHGNQDNNAKATILWDNAFSEMDRVPFVVAERVPWEKMCETLNLKFMAEVGTNRGLLPEHFLFLAQKIFNDNSLSMEAFQHRSVSWSQFNKEILLGRGFTFWQWFDGVLDLTKRCLRSYWSDRLIIGFISKQYVTSLLLNEPDGTFLLRFSDSEIGGITIAHVIRGQDGSPQIENIQPFSAKDLSIRSLGDRIRDLAQLKNLYPKKPKDEAFRSHYKPEQMGKDGRGYVPATIKMTVERDQPLPTPELQMPTMVPSYDLGMAPDSSMSMQLGPDMVPQVYPPHSHSIPPYQGLSPEESVNVLSAFQEPHLQMPPSLGQMSLPFDQPHPQGLLPCQPQEHAVSSPDPLLCSDVTMVEDSCLSQPVTAFPQGTWIGEDIFPPLLPPTEQDLTKLLLEGQGESGGGSLGAQPLLQPSHYGQSGISMSHMDLRANPSW [STAT6]”, the “solubility in G1/S (log2)” value in the data set on HeLa Kyoto [1] was 0.0515. Further, the values for the melting temperature in the data set on HeLa Kyoto [2] (cell cycle stage: G1/S) and with HeLa Kyoto [2] (cell cycle stage: mitosis) were 48.4 °C and 49.6 °C, respectively. The “solubility change mitosis (log2)” value with HeLa Kyoto [3] was -0.111. Besides, the thermal stability score with HeLa Kyoto [4] (setting [5]) is 0.798; with HeLa Kyoto [4] (cell cycle stage: mitosis) it was 2.24.

Regarding “MSLYDDLGVETSDSKTEGWSKNFKLLQSQLQVKKAALTQAKSQRTKQSTVLAPVIDLKRGGSSDDRQIVDTPPHVAAGLKDPVPSGFSAGEVLIPLADEYDPMFPNDYEKVVKRQREERQRQRELERQKEIEEREKRRKDRHEASGFARRPDPDSDEDEDYERERRKRSMGGAAIAPPTSLVEKDKELPRDFPYEEDSRPRSQSSKAAIPPPVYEEQDRPRSPTGPSNSFLANMGGTVAHKIMQKYGFREGQGLGKHEQGLSTALSVEKTSKRGGKIIVGDATEKDASKKSDSNPLTEILKCPTKVVLLRNMVGAGEVDEDLEVETKEECEKYGKVGKCVIFEIPGAPDDEAVRIFLEFERVESAIKAVVDLNGRYFGGRVVKACFYNLDKFRVLDLAEQV [RBM17]”, the “solubility in G1/S (log2)” value in the data set with HeLa Kyoto [1] was -0.32. Further, the melting temperature was 48.3 °C with HeLa Kyoto [2] (cell cycle stage: G1/S) and 49.3 °C in the data set on HeLa Kyoto [2] (cell cycle stage: mitosis). In the data set on HeLa Kyoto [3], the “solubility change mitosis (log2)” value is 0.318. Also, the thermal stability score with HeLa Kyoto [4] (setting [5]) amounted to 0.948; in the data set on HeLa Kyoto [4] (cell cycle stage: mitosis), 4.62.

For “MSLYPSLEDLKVDKVIQAQTAFSANPANPAILSEASAPIPHDGNLYPRLYPELSQYMGLSLNEEEIRANVAVVSGAPLQGQLVARPSSINYMVAPVTGNDVGIRRAEIKQGIREVILCKDQDGKIGLRLKSIDNGIFVQLVQANSPASLVGLRFGDQVLQINGENCAGWSSDKAHKVLKQAFGEKITMTIRDRPFERTITMHKDSTGHVGFIFKNGKITSIVKDSSAARNGLLTEHNICEINGQNVIGLKDSQIADILSTSGTVVTITIMPAFIFEHIIKRMAPSIMKSLMDHTIPEV [SDCBP]”, in the data set with HeLa Kyoto [1], the “solubility in G1/S (log2)” value was 0.00564. The figures for the melting temperature in the data set with HeLa Kyoto [2] (cell cycle stage: G1/S) and in the data set on HeLa Kyoto [2] (cell cycle stage: mitosis) were 52.6 °C and 51.4 °C, respectively. Further, in the data set on HeLa Kyoto [3], the “solubility change mitosis (log2)” value is -0.0317. Further, the figures for the thermal stability score in the data set with HeLa Kyoto [4] (setting [5]) and in the data set with HeLa Kyoto [4] (cell cycle stage: mitosis) were -1.02 and -6.31, respectively.

Take “MSNKEGSGGFRKRKHDNFPHNQRREGKDVNSSSPVMLAFKSFQQELDARHDKYERLVKLSRDITVESKRTIFLLHRITSAPDMEDILTESEIKLDGVRQKIFQVAQELSGEDMHQFHRAITTGLQEYVEAVSFQHFIKTRSLISMDEINKQLIFTTEDNGKENKTPSSDAQDKQFGTWRLRVTPVDYLLGVADLTGELMRMCINSVGNGDIDTPFEVSQFLRQVYDGFSFIGNTGPYEVSKKLYTLKQSLAKVENACYALKVRGSEIPKHMLADVFSVKTEMIDQEEGIS [TSNAX]”: the “solubility in G1/S (log2)” value in the data set with HeLa Kyoto [1] worked out at 0.379. In addition, the melting temperature in the data set with HeLa Kyoto [2] (cell cycle stage: G1/S) was found to be 54.7 °C; in the data set on HeLa Kyoto [2] (cell cycle stage: mitosis) it was 56.3 °C. For the same sequence, the “solubility change mitosis (log2)” value in the data set on HeLa Kyoto [3] is -0.0987. The thermal stability score with HeLa Kyoto [4] (setting [5]) was -0.435; in the data set with HeLa Kyoto [4] (cell cycle stage: mitosis) it was -1.45.

With “MSNMEKHLFNLKFAAKELSRSAKKCDKEEKAEKAKIKKAIQKGNMEVARIHAENAIRQKNQAVNFLRMSARVDAVAARVQTAVTMGKVTKSMAGVVKSMDATLKTMNLEKISALMDKFEHQFETLDVQTQQMEDTMSSTTTLTTPQNQVDMLLQEMADEAGLDLNMELPQGQTGSVGTSVASAEQDELSQRLARLRDQV [CHMP1B]”, in the data set with HeLa Kyoto [1], the “solubility in G1/S (log2)” value worked out at 0.304. The melting temperature was determined as 51.8 °C in the data set with HeLa Kyoto [2] (cell cycle stage: G1/S) and 52.2 °C in the data set with HeLa Kyoto [2] (cell cycle stage: mitosis). In the data set with HeLa Kyoto [3], the “solubility change mitosis (log2)” value came to 0.158. Moreover, the thermal stability score with HeLa Kyoto [4] (setting [5]) was 0.0467; with HeLa Kyoto [4] (cell cycle stage: mitosis), -0.997.
